From US20140186363A1 (UNIVERSITY OF ZURICH, published 2014)

Key:
MAGEA3 [1] = target: T1, MAGEA3 (human, UniProt P43357 1-314); assay: ELISA, plate coated with recombinant MAGEA3, serial dilution of antibody
T1 construct: also called recombinant MAGEA3; MAGEA3-protein

MAGEA3 peptide no 21 = target: T2, MAGEA3 peptide no 21; assay: peptide ELISA (coated 20mer)
T2 construct: also called MAGEA3 aa 201-220
T2 peptide: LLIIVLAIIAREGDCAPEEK
Method: (§1) 20mer peptides spanning the entire MAGEA3 protein with 10 aa overlaps shared by each adjacent peptide (Peptides&Elephants, Nuthetal, Germany) were used to coat Maxisorp ELISA plates (Nunc, Rochester, N.Y.). As control a 20mer peptide representing amino acids 40-21 from the NY-ESO-1 protein was used (rev). The numbering of amino acids of MAGEA3 is based on SEQ ID No:41.
(§2) Human recombinant antibody was used at a concentration of 1 μg/ml. Bound human antibody was detected using horseradish peroxidase-conjugated goat anti-human IgG Fc-gamma specific antibodies (Jackson ImmunoResearch, Europe Ltd., Cambridgeshire, UK).

MAGEA3 peptide no 16 = target: T3, MAGEA3 peptide no 16; assay: peptide ELISA (coated 20mer)
T3 construct: also called MAGEA3 aa 151-170
T3 peptide: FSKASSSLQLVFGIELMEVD
Method: as §1, §2

MAGEA3 peptide no 3 = target: T4, MAGEA3 peptide no 3; assay: peptide ELISA (coated 20mer)
T4 construct: also called MAGEA3 aa 21-40
T4 peptide: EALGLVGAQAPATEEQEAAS
Method: as §1, §2

MAGEA3 peptide no 19 [2] = target: T5, MAGEA3 peptide no 19; assay: peptide ELISA (coated 20mer)
T5 construct: also called MAGEA3 aa 181-200
T5 peptide: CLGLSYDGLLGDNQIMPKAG
Method: as §1, §2

MAGEA3 peptide no 13 = target: T6, MAGEA3 peptide no 13; assay: peptide ELISA (coated 20mer)
T6 construct: also called MAGEA3 aa 121-140
T6 peptide: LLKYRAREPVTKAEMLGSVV
Method: as §1, §2

MAGEA3 peptide no 7 = target: T7, MAGEA3 peptide no 7; assay: peptide ELISA (coated 20mer)
T7 construct: also called MAGEA3 aa 61-80
T7 peptide: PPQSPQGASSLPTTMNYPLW
Method: as §1, §2

MAGEA3 peptide no 18 = target: T8, MAGEA3 peptide no 18; assay: peptide ELISA (coated 20mer)
T8 construct: also called MAGEA3 aa 171-190
T8 peptide: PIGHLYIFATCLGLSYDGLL
Method: as §1, §2

MAGEA3 peptide no 17 = target: T9, MAGEA3 peptide no 17; assay: peptide ELISA (coated 20mer)
T9 construct: also called MAGEA3 aa 161-180
T9 peptide: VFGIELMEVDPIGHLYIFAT
Method: as §1, §2

MAGEA3 peptide no 10 [3] = target: T10, MAGEA3 peptide no 10; assay: peptide ELISA (coated 20mer)
T10 construct: also called MAGEA3 aa 91-110
T10 peptide: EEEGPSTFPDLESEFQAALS
Method: as §1, §2

MAGEA3 peptide no 28 [4] = target: T11, MAGEA3 peptide no 28; assay: peptide ELISA (coated 20mer)
T11 construct: also called MAGEA3 aa 271-290
T11 peptide: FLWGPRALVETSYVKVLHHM
Method: as §1, §2

MAGEA3 peptide no 12 [5] = target: T12, MAGEA3 peptide no 12; assay: peptide ELISA (coated 20mer)
T12 construct: also called MAGEA3 aa 111-130
T12 peptide: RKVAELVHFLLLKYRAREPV
Method: as §1, §2

MAGEA3 peptide no 22 = target: T13, MAGEA3 peptide no 22; assay: peptide ELISA (coated 20mer)
T13 construct: also called MAGEA3 aa 211-230
T13 peptide: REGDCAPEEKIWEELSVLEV
Method: as §1, §2

MAGEA3 peptide no 2 = target: T14, MAGEA3 peptide no 2; assay: peptide ELISA (coated 20mer)
T14 construct: also called MAGEA3 aa 11-30
T14 peptide: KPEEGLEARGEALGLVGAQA
Method: as §1, §2

MAGEA3 peptide no 20 = target: T15, MAGEA3 peptide no 20; assay: peptide ELISA (coated 20mer)
T15 construct: also called MAGEA3 aa 191-210
T15 peptide: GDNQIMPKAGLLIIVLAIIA
Method: as §1, §2

MAGEA3 peptide no 19 [6] = target: T5, MAGEA3 peptide no 19; assay: peptide ELISA (coated 20mer) [Figure 1]
Method: as §1, §2

MAGEA3 peptide no 9 = target: T16, MAGEA3 peptide no 9; assay: peptide ELISA (coated 20mer) [Figure 1]
T16 construct: also called MAGEA3 aa 81-100
T16 peptide: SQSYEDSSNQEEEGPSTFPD
Method: as §1, §2

MAGEA3 peptide no 4 = target: T17, MAGEA3 peptide no 4; assay: peptide ELISA (coated 20mer) [Figure 1]
T17 construct: also called MAGEA3 aa 31-50
T17 peptide: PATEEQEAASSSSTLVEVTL
Method: as §1, §2

MAGEA3 peptide no 25 = target: T18, MAGEA3 peptide no 25; assay: peptide ELISA (coated 20mer) [Figure 1]
T18 construct: also called MAGEA3 aa 241-260
T18 peptide: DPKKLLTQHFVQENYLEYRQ
Method: as §1, §2

MAGEA3 peptide no 1 = target: T19, MAGEA3 peptide no 1; assay: peptide ELISA (coated 20mer) [Figure 1]
T19 construct: also called MAGEA3 aa 1-20
T19 peptide: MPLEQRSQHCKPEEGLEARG
Method: as §1, §2

MAGEA3 peptide no 10 [7] = target: T10, MAGEA3 peptide no 10; assay: peptide ELISA (coated 20mer) [Figure 1]
Method: as §1, §2

MAGEA3 peptide no 28 [8] = target: T11, MAGEA3 peptide no 28; assay: peptide ELISA (coated 20mer) [Figure 1]
Method: as §1, §2

MAGEA3 peptide no 12 [9] = target: T12, MAGEA3 peptide no 12; assay: peptide ELISA (coated 20mer) [Figure 1]
Method: as §1, §2

MAGEA3 [10] = target: T1, MAGEA3; assay: ELISA, plate coated with recombinant MAGEA3, serial dilution of antibody [Figure 4]
MAGEA3 peptide no 6 = target: T20, MAGEA3 peptide no 6; assay: ELISA on plate-coated 20mer peptide, antibody at 1 µg/ml, anti-human IgG Fc-HRP [Figure 1]
T20 construct: also called MAGEA3 aa 51-70
T20 peptide: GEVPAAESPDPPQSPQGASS
Method: as §1, §2

MAGEA3 [11] = target: T1, MAGEA3; assay: ELISA, plate coated with recombinant MAGEA3, serial dilution of antibody [Figure 4]; remark: listed apart in the source
MAGEA3 peptide no 5 = target: T21, MAGEA3 peptide no 5; assay: ELISA on plate-coated 20mer peptide, antibody at 1 µg/ml, anti-human IgG Fc-HRP [Figure 1]
T21 construct: also called MAGEA3 aa 41-60
T21 peptide: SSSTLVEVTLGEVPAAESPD
Method: as §1, §2

B1: 32H2 (antibody, V domains shown)
VH: QVQLVESGGGVVQPGRSLRLSCAASGFTFSSNAMHWVRQAPGKGLEWVAVISHDGSNKYYADSVKGRFTISRDNSKNTLYLQMNSLRAEDTAVYYCARDGSGSYFNLDYWGQGTLVTVSS
VL: QSALTQPASVSGSPGQSITISCTGTSSDVGGYNYVSWYQQHPGKAPKLMIYEVSNRPSGVSNRFSGSKSGNTASLTISGLQAEDEADYYCSSYTSSSTLVFGTGTKVTVL
notes: Patient-derived human antibody made recombinantly; also called human monoclonal antibody 32H2
With B1 the EC50 (MAGEA3 [1]) was 0.033 nM, the “EC50 (read off the curve)” value (MAGEA3 [1]) was roughly 0.03 nM and the binding result (MAGEA3 peptide no 21) was “no binding (tested: 1 µg/ml)”. B1: no binding (tested: 1 µg/ml) (MAGEA3 peptide no 16); no binding (tested: 1 µg/ml) (MAGEA3 peptide no 3); no binding (tested: 1 µg/ml) (MAGEA3 peptide no 19 [2]). B1: no binding (tested: 1 µg/ml) (MAGEA3 peptide no 13); no binding (tested: 1 µg/ml) (MAGEA3 peptide no 7); no binding (tested: 1 µg/ml) (MAGEA3 peptide no 18). B1: no binding (tested: 1 µg/ml) (MAGEA3 peptide no 17); no binding (tested: 1 µg/ml) (MAGEA3 peptide no 10 [3]); no binding (tested: 1 µg/ml) (MAGEA3 peptide no 28 [4]). B1: no binding (tested: 1 µg/ml) (MAGEA3 peptide no 12 [5]); no binding (tested: 1 µg/ml) (MAGEA3 peptide no 22); no binding (tested: 1 µg/ml) (MAGEA3 peptide no 2). B1: no binding (tested: 1 µg/ml) (MAGEA3 peptide no 20).

B2: 34G9 (antibody, V domains shown)
VH: EVQLEESGGDLVQPGGSLRLSCAASGFTFSHYWMHWVRQAPGKGLVWVSRINSDGSSTSYADSVKGRFTISRDNAKNTLYLQMNSLRAEDTAVYYCARIGSDGYNYDFWGQGTLVTVSS
VL: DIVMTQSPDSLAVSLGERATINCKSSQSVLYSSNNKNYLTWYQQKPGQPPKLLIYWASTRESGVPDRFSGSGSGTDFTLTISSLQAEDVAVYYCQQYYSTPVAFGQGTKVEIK
notes: Patient-derived human antibody made recombinantly; also called human monoclonal antibody 34G9
B2: no binding (tested: 1 µg/ml) (MAGEA3 peptide no 19 [6]); no binding (tested: 1 µg/ml) (MAGEA3 peptide no 9); no binding (tested: 1 µg/ml) (MAGEA3 peptide no 4). B2: no binding (tested: 1 µg/ml) (MAGEA3 peptide no 25); no binding (tested: 1 µg/ml) (MAGEA3 peptide no 1); no binding (tested: 1 µg/ml) (MAGEA3 peptide no 10 [7]). The binding result (MAGEA3 peptide no 28 [8]) was “no binding (tested: 1 µg/ml)”, the binding result (MAGEA3 peptide no 12 [9]) was “no binding (tested: 1 µg/ml)” and the EC50 (MAGEA3 [10]) was 0.045 nM. The “EC50 (read off the curve)” value (MAGEA3 [10]) was roughly 0.04 nM and the binding result (MAGEA3 peptide no 6) was “binds”.

B3: 102G10 (antibody, V domains shown)
VH: EVQLVESGGGLVKPGGSLRLSCAASGFTFSGNSMNWVRQAPGKGLEWVSSISSSSGYIYYADSVKGRFTVSRDNAKNSLYLQMNSLRAEDTAVYYCATWPVTTARVGYWGQGTLVTVSS
VL: QSVLTQPPSASGTPGQRVTISCSGSSSNIGSNYVYWHQQLPGTAPKLLIYRHDQRPSGVPDRFSGSKSGTSASLAISGLRSEDEADYYCAAWDDSLSAWVFGGGTKLTVL
notes: Patient-derived human antibody made recombinantly; also called human monoclonal antibody 102G10
B3: no binding (tested: 1 µg/ml) (MAGEA3 peptide no 19 [6]); no binding (tested: 1 µg/ml) (MAGEA3 peptide no 9); no binding (tested: 1 µg/ml) (MAGEA3 peptide no 4). B3: no binding (tested: 1 µg/ml) (MAGEA3 peptide no 25); no binding (tested: 1 µg/ml) (MAGEA3 peptide no 1); no binding (tested: 1 µg/ml) (MAGEA3 peptide no 10 [7]). For the same binder, the binding result (MAGEA3 peptide no 28 [8]) was “no binding (tested: 1 µg/ml)”, the binding result (MAGEA3 peptide no 12 [9]) was “no binding (tested: 1 µg/ml)” and the EC50 (MAGEA3 [11]) was 0.034 nM. B3: binds (MAGEA3 peptide no 5).
